Reference: the nanobody polyreactivity screen of Harvey et al. (2022)

Assay: yeast display, Sf9 membrane polyspecificity reagent, FACS + sequencing; frameworks hold sequencing errors
How it was run: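 Using colony PCR, genes from sorted yeast display clones were amplified, then sequenced on MiSeq at 2 × 250 and filtered by CDR length. The clones had been stained with 10% biotinylated, detergent-solubilized Sf9 membrane reagent for 1 hour at 4 °C and sorted by FACS into low and high (top ~1%) gates on anti-HA and streptavidin fluorescence. Polyreactivity labels come from the gate of origin.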

| Sequence | polyreactivity (PSR sort gate) |
| --- | --- |
| QVQLVESGGGLVQAGGSLRLSCAASGSISVSYMGWYRQAPGKERELVAAINWRGGSTYYADSVKGRFTISRDNAKNTVYLQMNSLKPEDTAVYYCAADYTVSYPYYEYYYWGQGTQVNVSS | high polyreactivity |
| QFQLVESGGGLVQAGGSLRLSCAASGRTLSSYDMGWYRQAPGKERELVAAISRGGSTYYADSVKGRFTISRDNAKNTVYLQMNSLKPEDTAVYYCAASFYGGYWGYDYWGQGTQVTVSS | high polyreactivity |
| QVQLVESGGGLVQAGGRLRLSGAASGSTFGGYAMGWYRQAPGKERELVASINYGGDTTYYADSVKGRFTISRDNAKNTVYLQMNSLKPEDTAVYYCATDGTTPTPRYAFVRFDHWGQGTQVTVSS | low polyreactivity |
| QVQLVESGAGLVQEGGSLRLSCAASGRTSGFNTMGRYRQAPGKETQLVAAISFSGGSTYYADSVKGRFTISRDNEKNTVYLQMNSLKPEDTEVYYCNALYRYLYRSGDYWGQGTQVSVSS | low polyreactivity |
| QVQLVESGGGLVQAGGSLRLSCAASGRTFVFYAMGWYRPAPGKERELVADITWSDGNTYYADSVKGRFTISRDNAKNSVYLQMKSLKPEDTAVYYCAKVRTGQSRSVGYDYWGQGTQVTGSS | low polyreactivity |
| QVQLVESGGGLVQAGGSLRLSCAASGFTFPYYAMGWYRQAPGKERELVAAISSGGRTNYADSVKGRFTISRDNAKNTVYLQMNSLKPEDTAVYYCATRSYVFAWEFNYWGQGTQVTVSS | high polyreactivity |
| QVKLVESAGGLVQARGSLRLSCAGSGITFVRNAMGWYRQAPGKERELVAAISSGGSTYYADSVKGRFTISRDNAKNTVYLQMNSLKPEDTAVYYCNAQIYGRLYRYRWHFYWGQGTQVTVSS | high polyreactivity |
| QVQLVESRGGLVQAGGSLRLSCAASGFTLPANGMGWYRQAPGKERELVAAISFIAGSTYYADSVKGRFTISRDNEKNTVYFQMNSLKPEDTAVYYSATQFPPSSIYDYWGQGTQVTVSS | low polyreactivity |
| QVQLVESGGGLVQAGGSLRLSCAASGRIFGINALGWYRQAPGKERELVAAISSADSTYADSVKGRFTISRDNAKNTVFLQMYSLNPEDTAVYNCRNDYWGQGTQVTVSS | low polyreactivity |
| QVQLGDSGGGLVQAGGRLRLSCAASGRTIRPYTMGWYRQAPGNERALVAAITSGGGSTYYADSVKGRFTISRDNAKNTVTLQMHSLKPDDTAVYYCAAPRRERWIDVNQHYSWGQGTQVTVSS | low polyreactivity |
| QVQHEESGGGLVQAGGSLRLSCAASGSIIAYNAMGWYRQAPGKERELVAAITDSGGSTFDADSVKGRFTFSRDYGMITVYLQMNSLIPEDTAVYYCATSGDRLVWGQGTQVTVSS | low polyreactivity |
| QVQLVESGGGLVQAGGSLRLSCAASGSTVGANAMGWYRQAPGKERELVATISSGGRTYYADSVKGRFTISRDNAKNTVYLQMNSLKPEDTAVYYCNAGADYTYVYISVYVLYDYWGQGTQVTVSS | low polyreactivity |
| QVQLVESGGGLVQAGGSLRLSCAASGRTFVRYAMGWYRQAPGKERELVAAISGDGASTYYADSVKGRFTISRDNAKNTVYLQMNSLKPEDTAVYYCNARSIRRYYYPDYDYWGQGTQVTVSS | high polyreactivity |
| QVQLVESGGGLVQAGGSLRLSCAASGSIRYYAMGWYRQAPGKEREFVAAISRRGSSTNYADSVKGRFTISRDNAKNTVYLQMNRLKPEDTAVYYCARGLDVISYGYDYWGQGTQVTVSS | high polyreactivity |
| QVQLVESGGGIVQAGGSLRLSCAATGNTFRYYTMGWYRKAPGKERELVAAINYRGSRTYYADSVKGRFTISRDNAKNTVYLQINSLKPEDTAVYYCARAYNAGYRYRSDYWGQGTQVTVSS | high polyreactivity |
| QVQLVESGGGLVQAGGSLRLSCAASGRNFSSYAMGWYIQAPGKERELVAAITSGGRTKYADSVKGRFTISRDNAKNTVYLQMNSLKPEDTAVYYCAARNHWVRYLRYDYWGQGTQVTVSS | high polyreactivity |
| QVQLVESGGGLVQAGGSLRLSCAASGYIILLYAMGWYRQAPGKERELVAAISTRDGSTYYADSVKGRFTISRDNGKITVYLQMNSLNPEDTAVYYCATLYYYNYCGQGTQVTVSS | high polyreactivity |
| QVQLVESGGGLVQAGGSLRLSCAASGIIFNYYAMGWYRQAPGKERELVAAIRISDTTYYADSVKGRFTISRDNAKNTVYLQMNSLKPEDTAVYYCNTLYYYYYGEVYVRDYDYWGQGTQVTVSS | low polyreactivity |
| QVQLVESGGGFVQAGGSLRLSCAASGSIFYYNAMGWYRQAPGKERELVAAIDWSGGITYYADSVKGRFTISRDNAKNTVYLQMNSLKPEDTAVYYCNVPMPPAKAEYGYWGQGTQVTVSS | high polyreactivity |
| QVQLVESGGGLVQSGGSLRLSCAASGNTFHSNAMGWYRQAPGKERELVAAITPSDGDTYYADSVKGRFTISRDNAKNTVYLQMNSLKPEDTAVYYCNARKQVYKIYYSDYRRYDYWGQGTQVTVSS | low polyreactivity |
| QVQLVESGGGLVQAGGSLRLSCAASGSIFLKYAMGWYRQAPGKERELVATISRGGSTNYADSVKGRFTISRDNAKNTVYLLMNSLKPEYTAVYYCAAKYGRPYGTYGYWGQGTQVTVSS | high polyreactivity |
